In patent publication US7989192B2, “Modified beta-lactamase and method for its preparation” (IPSAT Therapies Oy, priority 2006, dated 2011):

Key:
Assay in all cases: purified protein, by the assay type
Format in all cases: biochemical, Bacillus cereus
Settings in all cases: other: 10 mM phosphate buffer, pH 7.0, 30° C, Hanes plot, mean of three independent measurements
[1] = test system: CC1(C)S[C@@H]2[C@H](NC(=O)[C@H](N)c3ccc(O)cc3)C(=O)N2[C@H]1C(=O)O
Procedure: (§1) The enzyme kinetic parameters kcat and Km were determined from initial rates by Hanes plot. The reactions were performed in 10 mM phosphate buffer, pH 7.0 at 30° C. The reaction cuvette (one mL) contained about 5 pmol of enzyme in all reactions except 1.7 pmol of enzyme in the meropenem assay. The hydrolysis of various beta-lactam substrates was spectrophometrically recorded at a wavelength specific for each substrate.
(§2) Values for different kinetic parameters (kcat, Km and kcat/Km) that represent mean values obtained from three independent measurements are reported in Table 6.

[2] = test system: CC1(C)S[C@@H]2[C@H](NC(=O)[C@H](N)c3ccccc3)C(=O)N2[C@H]1C(=O)O
Procedure: as §1, §2

[3] = test system: CCN1CCN(C(=O)N[C@@H](C(=O)N[C@@H]2C(=O)N3[C@@H]2SC(C)(C)[C@@H]3C(=O)O)c2ccccc2)C(=O)C1=O
Procedure: as §1, §2

[4] = test system: CO/N=C(\C(=O)N[C@@H]1C(=O)N2C(C(=O)O)=C(COC(C)=O)CS[C@H]12)c1csc(N)n1
Procedure: as §1, §2

[5] = test system: CO/N=C(\C(=O)N[C@@H]1C(=O)N2C(C(=O)O)=C(COC(N)=O)CS[C@H]12)c1ccco1
Procedure: as §1, §2

[6] = test system: CO/N=C(\C(=O)N[C@@H]1C(=O)N2C(C(=O)O)=C(CSc3nc(=O)c(=O)[nH]n3C)CS[C@H]12)c1csc(N)n1
Procedure: as §1, §2

[7] = test system: C[C@@H](O)[C@H]1C(=O)N2C(C(=O)O)=C(S[C@@H]3CN[C@H](C(=O)N(C)C)C3)[C@H](C)[C@H]12
Procedure: as §1, §2

P2A metallo-beta-lactamase (Bacillus cereus)
Km [1]: 716 µM
Km [2]: 942 µM
Km [3]: 372 µM
Km [4]: 66 µM
Km [5]: 27 µM
Km [6]: 68 µM
Km [7]: 410 µM
